Measurements taken from article doi:10.1101/2020.06.12.149252.

Molecular target: taxol-stabilized microtubules (porcine brain tubulin) (porcine) (UniProt P02550)
Experiment: TIRF microscopy

UniProt P02550, sequence (P02550 whole entry): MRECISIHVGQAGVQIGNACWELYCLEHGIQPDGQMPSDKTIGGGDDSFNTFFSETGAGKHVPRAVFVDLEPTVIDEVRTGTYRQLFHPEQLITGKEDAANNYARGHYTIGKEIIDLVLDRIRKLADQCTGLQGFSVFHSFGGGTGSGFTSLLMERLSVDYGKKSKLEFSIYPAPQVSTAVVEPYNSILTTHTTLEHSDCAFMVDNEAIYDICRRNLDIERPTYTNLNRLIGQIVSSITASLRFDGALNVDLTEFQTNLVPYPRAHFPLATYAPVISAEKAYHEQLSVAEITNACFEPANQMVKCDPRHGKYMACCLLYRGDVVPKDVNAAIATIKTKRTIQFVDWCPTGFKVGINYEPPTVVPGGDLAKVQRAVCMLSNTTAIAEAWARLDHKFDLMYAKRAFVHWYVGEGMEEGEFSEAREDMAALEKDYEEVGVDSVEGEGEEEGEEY

Substance | microtubule-bound fluorescence intensity at 3 nM | microtubule-bound fluorescence intensity at 25 nM | Kd | microtubule-bound fluorescence intensity at 12 nM | microtubule-bound fluorescence intensity at 48 nM
sfGFP-DCLK1-D511N (kinase dead), expressed in bacteria under standard conditions (from UniProt O15075 1-740) (natural protein) | 7140 | 19600 | – | – | –
sfGFP-DCLK1-T687/688A co-expressed with lambda phosphatase, without ATP (from UniProt O15075 1-740) (natural protein) | – | – | 9.4 nM | – | –
sfGFP-DCLK1-T687A co-expressed with lambda phosphatase, without ATP (from UniProt O15075 1-740) (natural protein) | – | – | 2.4 nM | – | –
sfGFP-DCLK1-T688A co-expressed with lambda phosphatase, without ATP (from UniProt O15075 1-740) (natural protein) | – | – | 2.4 nM | – | –
sfGFP-DCLK1-WT co-expressed with lambda phosphatase, without ATP (from UniProt O15075 1-740) (natural protein) | 14900 | – | 2.9 nM | 20600 | 15900
sfGFP-DCLK1-WT treated with lambda phosphatase after purification (from UniProt O15075 1-740) (natural protein) | 15900 | 18200 | – | – | –
sfGFP-DCLK1-WT, expressed in bacteria under standard conditions (from UniProt O15075 1-740) (natural protein) | 2560 | 16500 | – | – | –
sfGFP-DCLK1-ΔC4A co-expressed with lambda phosphatase, without ATP (from UniProt O15075 1-648) (domain or fragment) | 745 | – | – | 2550 | 4530
sfGFP-DCLK1-ΔC (aa 1-648) co-expressed with lambda phosphatase, without ATP (from UniProt O15075 1-648) (domain or fragment) | 6790 | – | 3.9 nM | 9840 | 14800
sfGFP-DCLK1-ΔC (aa 1-648) treated with lambda phosphatase after purification (from UniProt O15075 1-648) (domain or fragment) | 11800 | 21600 | – | – | –
